Columns and labels:
Test in all cases: SPR (Biacore), PEP07843 immobilized, analyte protein injected
IL-1R1 = biological target: T1, IL-1R1 (UniProt P14778 18-332, limits assumed)
T1 sequence (looked up): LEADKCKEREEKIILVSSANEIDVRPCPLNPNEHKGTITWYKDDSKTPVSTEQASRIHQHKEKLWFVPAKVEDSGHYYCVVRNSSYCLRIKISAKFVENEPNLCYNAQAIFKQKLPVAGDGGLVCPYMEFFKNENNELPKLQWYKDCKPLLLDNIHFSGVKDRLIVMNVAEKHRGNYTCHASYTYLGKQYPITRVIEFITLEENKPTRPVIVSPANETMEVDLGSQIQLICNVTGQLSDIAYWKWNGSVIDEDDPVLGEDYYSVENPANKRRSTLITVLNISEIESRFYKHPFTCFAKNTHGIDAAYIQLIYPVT
Protocol: (§1) In the binding experiment, HBS-EP was used as running buffer and the flow rate was 30 μl/min. […] The analytes, i.e. the panels of 24 or 12 different proteins, were each diluted in HBS-EP or HBS-EP supplemented with 500 mM NaCl to final concentrations of from 0.4 to 250 nM and injected for 5 min. […] The results were analyzed using the BiaEvaluation software.
(§2) The Z-ABD-Z polypeptides were injected over surfaces containing HSA followed by injection of the analyte proteins.

IL-17RA = biological target: T2, IL-17RA (UniProt Q96F46 33-320)
T2 sequence (looked up): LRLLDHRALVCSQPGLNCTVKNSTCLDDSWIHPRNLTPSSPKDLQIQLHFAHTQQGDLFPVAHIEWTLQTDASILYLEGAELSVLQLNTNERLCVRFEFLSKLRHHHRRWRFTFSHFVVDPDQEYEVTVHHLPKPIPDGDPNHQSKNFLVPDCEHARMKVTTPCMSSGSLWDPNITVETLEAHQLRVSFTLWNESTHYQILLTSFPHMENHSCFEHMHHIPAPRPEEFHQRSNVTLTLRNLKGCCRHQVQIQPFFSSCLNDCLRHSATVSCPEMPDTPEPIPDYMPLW
Protocol: as §1, §2

[1] = biological target: T3, AMBP/Alpha1 microglobulin (UniProt P02760 20-203, limits assumed)
T3 sequence (looked up): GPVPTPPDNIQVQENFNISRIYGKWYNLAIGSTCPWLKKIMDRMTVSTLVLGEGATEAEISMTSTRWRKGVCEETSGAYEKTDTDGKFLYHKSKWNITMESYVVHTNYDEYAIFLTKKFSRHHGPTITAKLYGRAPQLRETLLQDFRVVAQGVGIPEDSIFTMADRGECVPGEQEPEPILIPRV
Protocol: as §1, §2

human IL-17F = biological target: T4, human IL-17F (human, UniProt Q96PD4 31-163)
T4 construct: R&D Systems cat. no; 1335-IL/CF; also called hIL-17F
T4 sequence: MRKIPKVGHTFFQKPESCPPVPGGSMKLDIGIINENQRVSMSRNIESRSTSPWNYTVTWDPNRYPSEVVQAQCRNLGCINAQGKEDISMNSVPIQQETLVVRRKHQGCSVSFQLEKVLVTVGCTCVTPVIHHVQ
Protocol: as §1, §2

Human a-2 macroglobulin = biological target: T5, Human a-2 macroglobulin (human, UniProt P01023 24-1474)
T5 sequence (looked up): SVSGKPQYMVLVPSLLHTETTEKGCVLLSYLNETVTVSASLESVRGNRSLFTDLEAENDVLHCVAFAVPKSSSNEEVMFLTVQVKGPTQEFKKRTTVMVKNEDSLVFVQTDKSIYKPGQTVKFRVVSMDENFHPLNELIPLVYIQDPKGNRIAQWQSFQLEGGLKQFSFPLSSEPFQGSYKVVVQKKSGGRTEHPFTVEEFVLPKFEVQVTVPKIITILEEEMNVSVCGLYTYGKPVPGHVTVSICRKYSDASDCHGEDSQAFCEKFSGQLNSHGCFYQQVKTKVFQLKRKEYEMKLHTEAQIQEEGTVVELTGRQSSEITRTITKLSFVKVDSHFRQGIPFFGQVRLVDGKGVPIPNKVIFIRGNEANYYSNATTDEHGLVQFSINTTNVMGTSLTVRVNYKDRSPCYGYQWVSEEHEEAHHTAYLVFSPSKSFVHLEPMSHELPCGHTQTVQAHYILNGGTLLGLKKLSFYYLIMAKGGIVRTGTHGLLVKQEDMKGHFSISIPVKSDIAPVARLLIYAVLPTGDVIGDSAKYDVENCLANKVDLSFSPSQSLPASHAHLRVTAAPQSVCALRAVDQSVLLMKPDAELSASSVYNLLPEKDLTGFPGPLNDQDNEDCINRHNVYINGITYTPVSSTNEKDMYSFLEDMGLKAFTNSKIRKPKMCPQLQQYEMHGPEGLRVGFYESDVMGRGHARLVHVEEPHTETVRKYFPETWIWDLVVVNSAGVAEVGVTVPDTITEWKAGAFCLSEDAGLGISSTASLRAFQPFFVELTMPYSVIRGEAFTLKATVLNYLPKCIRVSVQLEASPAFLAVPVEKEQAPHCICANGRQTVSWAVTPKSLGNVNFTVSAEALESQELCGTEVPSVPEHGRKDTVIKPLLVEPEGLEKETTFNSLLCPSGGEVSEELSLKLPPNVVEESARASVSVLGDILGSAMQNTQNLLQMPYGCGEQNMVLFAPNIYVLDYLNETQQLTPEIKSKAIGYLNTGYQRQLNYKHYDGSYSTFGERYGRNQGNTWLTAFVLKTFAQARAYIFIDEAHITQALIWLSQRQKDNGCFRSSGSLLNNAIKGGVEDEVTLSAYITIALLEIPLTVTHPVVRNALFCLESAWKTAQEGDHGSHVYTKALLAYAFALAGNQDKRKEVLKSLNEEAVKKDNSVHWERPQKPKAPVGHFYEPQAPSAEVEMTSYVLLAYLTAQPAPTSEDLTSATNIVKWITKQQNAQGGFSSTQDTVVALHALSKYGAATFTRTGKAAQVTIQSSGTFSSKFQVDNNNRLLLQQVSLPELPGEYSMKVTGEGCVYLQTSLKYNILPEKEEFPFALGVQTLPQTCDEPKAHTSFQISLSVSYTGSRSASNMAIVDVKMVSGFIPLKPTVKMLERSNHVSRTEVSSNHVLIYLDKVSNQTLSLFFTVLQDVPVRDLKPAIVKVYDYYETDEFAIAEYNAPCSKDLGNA
Protocol: as §1, §2

Measured: binding result

GSSLAEAKEAANAELDSYGVSDFYKRLIDKAKTVEGVEALKDAILAALP (designed binder) [ABD variant PEP07843]
no binding (tested: 50, 250 nM): all assays above

Reference: patent US20250101074A1 (Affibody, published 2025)
